# Measurements published in paper PMC3202669.
# Molecular target: 7c12 monobody displayed on phage
# Assay: ELISA
substance,measurement,value
GST-Abl SH2 I164E (domain or fragment),fold reduction of binding against WT,400 fold
